Test results published in US20250099579A1 (MARENGO THERAPEUTICS, published 2025).

Tests used:
[1] = biological target: T1, human IL2R trimeric complex (human, UniProt P01589 22-213; P14784 27-239; P31785 23-262); assay: SPR (Biacore T200), BKM0186 captured via anti-human Fc on CM5 chip, receptor complex as analyte, 1:1 Langmuir model
T1 construct: also called Human IL-2Rαβγ
T1 sequence (looked up) 1: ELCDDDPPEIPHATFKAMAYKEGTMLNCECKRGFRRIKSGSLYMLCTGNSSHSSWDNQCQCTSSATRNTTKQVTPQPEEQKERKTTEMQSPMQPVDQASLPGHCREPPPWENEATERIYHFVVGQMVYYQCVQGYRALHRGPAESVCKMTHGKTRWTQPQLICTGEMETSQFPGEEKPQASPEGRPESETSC
T1 sequence (looked up) 2: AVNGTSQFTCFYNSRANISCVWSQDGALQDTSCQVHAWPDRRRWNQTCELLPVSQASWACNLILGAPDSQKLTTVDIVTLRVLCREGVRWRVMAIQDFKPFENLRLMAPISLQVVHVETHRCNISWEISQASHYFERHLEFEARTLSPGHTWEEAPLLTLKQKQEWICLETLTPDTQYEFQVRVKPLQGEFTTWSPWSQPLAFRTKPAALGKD
T1 sequence (looked up) 3: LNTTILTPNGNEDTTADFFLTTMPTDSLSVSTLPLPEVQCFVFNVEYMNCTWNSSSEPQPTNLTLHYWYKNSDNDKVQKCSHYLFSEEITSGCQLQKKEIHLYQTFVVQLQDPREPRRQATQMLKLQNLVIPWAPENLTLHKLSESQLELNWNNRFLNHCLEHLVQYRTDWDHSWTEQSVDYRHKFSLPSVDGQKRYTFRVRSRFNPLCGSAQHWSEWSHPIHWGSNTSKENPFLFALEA
Description: (§1) All interactions between bispecifics and relevant receptors were analyzed by Surface Plasmon Resonance (SPR) on a Biacore T200 instrument.
(§2) BKM0186 at 2 μg/mL was immobilized on a Series S CM5 chip via human Fe antibody to 80 RU. Human IL2Ra and cynomolgus IL2Ra were diluted to 500 nM, human IL2R beta-gamma and cynomolgus IL2R beta-gamma were diluted to 125 nM, and human IL2R trimeric complex was diluted to 50 nM and then serially diluted two-fold in 1×HBS-EP+ buffer for a total of 10 concentrations. Multi cycle kinetics was run where the chip is regenerated with 3 M Magnesium Chloride between each cycle followed by a new injection of BKM0186. An association time of 120 seconds and a dissociation time of 150 seconds for human and cyno IL2Ra, 300 seconds for human and cyno IL2R beta-gamma, and 900 seconds for the human IL2R trimeric complex was done at 30 uL/min. This assay was run in 1×HBS-EP+ Buffer pH 7.4 and 25 C. Sensorgrams were corrected by double reference subtraction using the reference flow cell not treated with BKM0186 and a blank cycle of buffer alone. BIAevaluation software was used for data analysis and the data were fit using a 1:1 Langmuir binding model for calculation of the KD value (Koff/Kon). Due to faster off rates observed for human and cyno IL2Ra binding, the data were fit using a steady state model where equilibrium binding response is analyzed.

Vβ6 TCR on human T cells [2] = biological target: Vβ6 TCR on human T cells (human); assay: cell-based or functional assay
cynomolgus IL2Ra = biological target: T2, cynomolgus IL2Ra (cynomolgus, UniProt H6WS54 22-213); assay: SPR (Biacore T200), BKM0186 captured via anti-human Fc on CM5 chip, receptor as analyte, steady state model
T2 construct: also called Cyno IL-2Rα
T2 sequence: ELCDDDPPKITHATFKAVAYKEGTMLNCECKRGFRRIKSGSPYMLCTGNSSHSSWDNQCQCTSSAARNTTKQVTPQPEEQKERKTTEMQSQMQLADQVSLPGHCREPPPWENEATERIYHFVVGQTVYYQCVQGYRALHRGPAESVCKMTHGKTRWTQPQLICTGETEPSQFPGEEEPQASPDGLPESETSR
Description: as §1, §2

Human IL2Ra = biological target: T3, Human IL2Ra (human, UniProt P01589 22-213, limits assumed); assay: as above
T3 construct: also called Human IL-2Rα; CD25
T3 sequence (looked up): T1 sequence (looked up) 1
Description: as §1, §2

Vβ6 TCR on human T cells [3] = biological target: T4, Vβ6 TCR on human T cells (human); assay: flow cytometry on sorted, activated TCRVβ6-5 positive CD25 hi human T cells (cells carry both Vβ6 TCR and CD25; co-operative binding)
T4 construct: whole, on cells; Polyclonal T cells: CDR3 and the paired alpha chains vary; also called Vβ6 T cells; TCRVβ6-5
Description: Pan T-cells were isolated from PBMC's via negative selection on the autoMACS. T-cells were stained for TCRVβ6-5 and sorted on the Sony SH800 cell sorter into cell culture media. Sorted TCRVβ6-5 T-cells and non-sorted pan T-cells were activated and expanded using anti-CD3/CD28 beads followed by IL-2 culture. Portion of activated T-cells were allowed to rest for 3-days in serum-free media. Anti-CD25 FACS staining to confirm CD25 upregulation (from activation) and downmodulation (from resting). T-cells that represents TCRVβ6-5(pos) CD25(hi); TCRVβ6-5(pos) CD25(low); TCRVβ6-5(neg) CD25(hi); TCRVβ6-5(neg) CD25(low) are checked for BKM0186 construct binding.
This avidity effect confirms that BKM0186 engages both Vβ6 and IL-2R via a cis binding mode.

cynomolgus Vβ6 TCR = biological target: T5, cynomolgus Vβ6 TCR (cynomolgus); assay: SPR (Biacore T200), BKM0186 captured via anti-human Fc on CM5 chip (80 RU), TCR as analyte, multi cycle kinetics, 1:1 Langmuir model, 25 C
T5 construct: also called Cyno TCRVβ
Description: as §1
(§3) BKM0186 at 2 μg/mL was immobilized on a Series S CM5 chip via human Fe antibody to 80 RU. Human Vβ6 TCR and cynomolgus Vβ6 TCR were diluted to 250 nM and then serially diluted two-fold in 1×HBS-EP+ buffer for a total of 10 concentrations. Multi cycle kinetics was done with an association time of 120 seconds and a dissociation time of 600 seconds, for human Vβ6 TCR and 300 seconds for cynomolgus Vβ6 TCR at 30 uL/min. This assay was run in 1×HBS-EP+ Buffer pH 7.4 at 25 C. Sensorgrams were corrected by reference subtraction using the reference flow cell not treated with BKM0186. BIAevaluation software was used for data analysis and the data were fit using a 1:1 Langmuir binding model for calculation of the KD value (Koff/Kₒₙ).

Human Vβ6 TCR = biological target: T6, Human Vβ6 TCR (human); assay: as above
T6 construct: The method text calls it Human Vβ6 TCR; also called Human TCRVβ
Description: as §1, §3

human IL2R beta-gamma = biological target: T7, human IL2R beta-gamma (human, UniProt P14784 27-239; P31785 23-262); assay: SPR (Biacore T200), BKM0186 captured via anti-human Fc on CM5 chip, receptor as analyte, 1:1 Langmuir model
T7 construct: Soluble heterodimer used as analyte; also called Human IL-2Rβγ; IL-2Rβγ heterodimer
T7 sequence (looked up) 1: T1 sequence (looked up) 2
T7 sequence (looked up) 2: T1 sequence (looked up) 3
Description: as §1, §2

[4] = biological target: T8, cynomolgus IL2R beta-gamma (cynomolgus); assay: as above
T8 construct: also called Cyno IL-2Rβγ
Description: as §1, §2

T4 sequence (A0A0K0K1A5 22-114): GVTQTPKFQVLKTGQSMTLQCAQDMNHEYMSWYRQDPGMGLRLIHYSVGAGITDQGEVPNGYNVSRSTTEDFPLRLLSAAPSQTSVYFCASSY

B1: BKM0186 (bispecific antibody, human IgG1, kappa, N297A)
heavy: QVQLVQSGAEVKKPGSSVKVSCKASGHDFRLTYIHWVRQAPGQGLEWMGRVSAGSGNVKYNEKFKGRVTITADTSTSTAYMELSSLRSEDTAVYYCAVSYYSYDVLDYWGQGTTVTVSSASTKGPSVFPLAPSSKSTSGGTAALGCLVKDYFPEPVTVSWNSGALTSGVHTFPAVLQSSGLYSLSSVVTVPSSSLGTQTYICNVNHKPSNTKVDKRVEPKSCDKTHTCPPCPAPELLGGPSVFLFPPKPKDTLMISRTPEVTCVVVDVSHEDPEVKFNWYVDGVEVHNAKTKPREEQYASTYRVVSVLTVLHQDWLNGKEYKCKVSNKALPAPIEKTISKAKGQPREPQVCTLPPSREEMTKNQVSLSCAVKGFYPSDIAVEWESNGQPENNYKTTPPVLDSDGSFFLVSKLTVDKSRWQQGNVFSCSVMHEALHNHYTQKSLSLSPGK
chain: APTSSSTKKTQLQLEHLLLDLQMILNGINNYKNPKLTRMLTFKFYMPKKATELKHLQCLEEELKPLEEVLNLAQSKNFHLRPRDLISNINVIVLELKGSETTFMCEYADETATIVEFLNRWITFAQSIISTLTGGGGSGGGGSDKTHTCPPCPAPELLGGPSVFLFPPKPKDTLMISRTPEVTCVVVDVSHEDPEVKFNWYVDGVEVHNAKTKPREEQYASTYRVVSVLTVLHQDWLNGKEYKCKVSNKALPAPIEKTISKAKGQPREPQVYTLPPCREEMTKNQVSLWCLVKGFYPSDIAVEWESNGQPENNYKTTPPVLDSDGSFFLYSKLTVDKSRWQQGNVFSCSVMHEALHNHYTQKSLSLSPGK
light: DIQMTQSPSFLSASVGDRVTITCKASQNVADRVVWHQQKPGKAPKALIYSSSHRYKGVPSRFSGSGSGTEFTLTISSLQPEDFATYFCQQFKSYPLTFGQGTKLEIKRTVAAPSVFIFPPSDEQLKSGTASVVCLLNNFYPREAKVQWKVDNALQSGNSQESVTEQDSKDSTYSLSSTLTLSKADYEKHKVYACEVTHQGLSSPVTKSFNRGEC
notes: also called TCRVβ/IL-2 (C125A) bispecific; IL2xTCRVβ
[1]
  Kd: 0.1 nM
Vβ6 TCR on human T cells [2]
  EC50 of proliferation of Vβ6 T cells as a proportion of total CD4+ T cells (human PBMCs, 5 days): 12 nM
  EC50 of proliferation of Vβ6 T cells as a proportion of total CD8+ T cells (human PBMCs, 5 days): 6 nM
Cynomolgus IL2Ra
  Kd: 48 nM
Human IL2Ra
  Kd: 45 nM
Vβ6 TCR on human T cells [3]
  EC50: 0.5 nM
Cynomolgus Vβ6 TCR
  Kd: 4.9 nM
Human Vβ6 TCR
  Kd: 1.7 nM
Human IL2R beta-gamma
  Kd: 3.8 nM
[4]
  Kd: 3.3 nM
